Measurements as given in article PMC6582535.

Target: Cholecystokinin type B receptor (mouse (endogenous in DRG)) (UniProt P56481)
Chain of UniProt P56481 (P56481 whole entry): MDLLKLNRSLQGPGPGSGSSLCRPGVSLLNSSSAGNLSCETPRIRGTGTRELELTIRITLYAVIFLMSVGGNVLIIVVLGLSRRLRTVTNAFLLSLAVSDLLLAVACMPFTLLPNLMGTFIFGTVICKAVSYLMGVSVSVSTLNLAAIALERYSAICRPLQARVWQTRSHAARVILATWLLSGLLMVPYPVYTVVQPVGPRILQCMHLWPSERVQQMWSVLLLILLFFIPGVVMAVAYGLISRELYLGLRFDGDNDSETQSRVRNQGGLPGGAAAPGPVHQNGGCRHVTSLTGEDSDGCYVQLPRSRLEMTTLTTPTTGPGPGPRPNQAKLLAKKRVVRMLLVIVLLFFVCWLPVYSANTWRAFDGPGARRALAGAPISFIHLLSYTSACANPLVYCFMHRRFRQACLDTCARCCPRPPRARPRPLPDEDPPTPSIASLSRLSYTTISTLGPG

CCK-4 (peptide) showed a percent decrease of A-type K+ current (IA) in small-sized mouse DRG neurons at 300 nM CCK-4 of 32.2%.
